# Measurements: publication PMC6167752 (ACS infectious diseases, 2018)
# Columns and labels:
# AAC(2′)-Ia = AAC(2′)-Ia (Providencia stuartii, UniProt Q52424); experiment: X-ray crystal structure; assay type: binding
# [1] = test system: CN[C@@H]1[C@@H](O)[C@@H](O[C@@H]2[C@@H](O)[C@H](O[C@H]3OC(CNCCO)=CC[C@H]3N)[C@@H](N)C[C@H]2NC(=O)[C@@H](O)CCN)OC[C@]1(C)O; experiment: purified protein; assay type: biochemical, Providencia stuartii; conditions: 150 μM AcCoA, 25 mM MES pH 6, 25 °C
# Sequence of AAC(2′)-Ia (Q52424 whole entry): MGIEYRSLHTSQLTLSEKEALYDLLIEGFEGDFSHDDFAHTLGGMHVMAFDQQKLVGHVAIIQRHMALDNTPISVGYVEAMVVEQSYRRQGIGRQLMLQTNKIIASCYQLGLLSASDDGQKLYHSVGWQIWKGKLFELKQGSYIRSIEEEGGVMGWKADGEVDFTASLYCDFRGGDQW
compound,measurement,setting,value
CC(=O)SCCNC(=O)CCNC(=O)[C@H](O)C(C)(C)COP(=O)(O)OP(=O)(O)OC[C@H]1O[C@@H](n2cnc3c(N)ncnc32)[C@H](O)[C@@H]1OP(=O)(O)O [acetyl-coenzyme A],X-ray crystal structure,AAC(2′)-Ia; one molecule modelled,"one acetyl-coenzyme A, and three coenzyme A molecules was evident in difference density maps"
AAC(2′)-Ia (Providencia stuartii),Km,[1],370 ± 90 µM
same,kcat,[1],0.9 ± 0.1 s⁻¹
same,kcat/Km,[1],2400 M⁻¹ s⁻¹
CC(C)(COP(=O)(O)OP(=O)(O)OC[C@H]1O[C@@H](n2cnc3c(N)ncnc32)[C@H](O)[C@@H]1OP(=O)(O)O)[C@@H](O)C(=O)NCCC(=O)NCCS [coenzyme A],X-ray crystal structure,AAC(2′)-Ia; active site,one dimer contained a coenzyme A bound to each active site
